The DeepSol protein solubility set

Test: soluble on expression in E. coli; label from the status in PepcDB or PDB records

Row | Sequence | soluble on expression in E. coli
1 | MGSDKIHHHHHHMEEVVKRLAEIRAMDARGEGGRLFTYLYETGDPGVKEVSLRAFEMFLDTNALDPTVFKSALFFERELVSFASSLAGGVEGVVGTVTYGGTESIILAAMAAREWYRSLGGSRTPGIVAPQTVHPSVRKAARYLGMRLSIAPVDPGSKRVDIDSLVSLVDDRTAMVVVSAPNYPYGTVDDVRSVAEALSSQRVWLHVDACVGGFILPFMRELGLYSGAFAFDVEGVYSVSMDLHKYGYSPKGASVLLFRDGSLKKHSIFADLRWPGYPFINTTVLSSRSVAPLAAAWAVTNYLGRRGYLELARKAVEARDEIMRGLESIGFRSLAPIESTILSVALDDPADTLRFHANMSRRGWILGLQPGVEGLAPPNIHLTISPIHKLVSPQFLGDARASSSEPLPKELEEAWRLLESRGPLELAGMIGRTQYDQVIIAWILSSIPPDLAEDLARELTVEVYRG | not soluble
2 | MSLRKNPYRLSDEIFGISFRTADRIAKSLGIDPYSKYRISSGIKYVLSRAATEGHTFLEEEMLKSYTSKLLDINIDSIEDALVSLVLNKSVYVDRNDGMSKIYLSSFYHAELGVCRKLVELSQVRYSADMEDFEERIKQVQKKEGIILADKQKEAIREAMTNGVLVITGGPGTGKTTIIKSIISLLESEGYEFALAAPTGRAAKRMSEATGYEAKTIHRLLEIGYTSNEDELVFMRTEDNPIEADVVIIDEMSMVDIILMYHLLKAIVCGTRLILVGDVDQLPSVGPGNVLRDIIKSGMIKTVKLSEIFRQAGESMIVVNAHRINRGEHPILNEREKDFFFVTRNSQNDILKTVVDLCTRRIPDTYGYDPMKQIQVLSPMRKGTVGVANLNIELQKVLNPEDGKEGHHHHHH | soluble
3 | MGSDKIHHHHHHMAFFDLPLEELKKYRPERYEEKDFDEFWEETLAESEKFPLDPVFERMESHLKTVEAYDVTFSGYRGQRIKGWLLVPKLEEEKLPCVVQYIGYNGGRGFPHDWLFWPSMGYICFVMDTRGQGSGWLKGDTPDYPEGPVDPQYPGFMTRGILDPRTYYYRRVFTDAVRAVEAAASFPQVDQERIVIAGGSQGGGIALAVSALSKKAKALLCDVPFLCHFRRAVQLVDTHPYAEITNFLKTHRDKEEIVFRTLSYFDGVNFAARAKIPALFSVGLMDNICPPSTVFAAYNYYAGPKEIRIYPYNNHEGGGSFQAVEQVKFLKKLFEKG | soluble
4 | MGHHHHHHSHMASGFIEIANKQGLTATLLPFGATLAKLTFPDKNGKNQDLVLGFDTIDEFEKDAASIGKTVGRVANRIKNSTLHFDGKQYTMTPNNGPHYLHGGPNGLGYRKWEVVRHAPESVSFSVRANEQDDGLPGDAKIDVTYTVNDRNQLIIEHHATCDTPGLLALTNHAYWNLDGSDTVAEHFLEMEADEFVEVDDTFCPTGAIRSVTDTGFDFRSGKQLKESGKDAEELLDLDNDLVITKKTPPSTPSTYLRFWSEKSGIELSITTSYPVIHLYASKFLDCKGKKGEHYKANKALAIEPQFHSAAPNFDHFPDVSLRPGDHYCQEIVYTFSHVN | soluble
5 | MGSDKIHHHHHHMKSDTEEKYLQQVNRVIDYINSHLNEPLRVETLAREVCLSEYHFHRIMRAYLHEPLATYIARQRVERAVMYLQMKNIRLAQVAEMVGYETPQSLSKAFKQFFGISPTAYRKRRAERYEEFSTLKKESLKPEILTEPELKLVYIRIIGRYGEEEPYIEAWRKLRDFLQINGLLTPSTRWIGISFDDPTVTKTEQCRFYACATVEHDVSPQGAFGMKTIPQGRYAVYTLRGSYSGLQEMYDRIYSHPLPTAFRDATSFEEYLNCEPDTEEKDYVTRIYIPIE | not soluble
6 | MGSDKIHHHHHHMSESYYGLLDEEKVFKDPVHRYIHVRDELIWALIGTKEFQRLRRVRQLGTTFLTFHGAEHTRFNHSLGVYEITRRIIEVFQGRPYWNEEERLLTLCAALLHDIGHGPFSHSFEKVFDTDHEEWTRRMIVGDTEIHNVLLKMGDDFPQKVADVIEKTYPNKLVTSIISSQIDADRMDYLQRDAYYTGVSYGHFDMERILRVMRPMEDQVVIKQSGMHAVEDYIMSRYQMYWQVYFHPVTRSAEVILSKVFKRVKDLYEQGYKFKQEPKHFYSLFEGNMSLDDYLRLDESITMYYFQIWQEEEDRILSDLCVRFINRQLFKYIEFNPNLQMNDWPRLQQLFAQAEIDPEYYLVVDSSSDLPYDFYRPGEEEERLPIHLIMPNGKLRELSRESDVVEAISGKKRTDHKLYFPMDCLTDQSDHKEIKQEILSLLFK | not soluble
7 | MGSDKIHHHHHHMMKYIFRTFSCGSGDCIFLILKSGDYTLNLMIDCGKYTEEIDEYVRNSLKNKIDYLIVTHIDNDHINGLIKMLTQNPDLIIEHIIYNCYQRVINNEQPWTEQMKANVDRLYDQLPIVIDMLSQNVNEEKALTLAECILRKEEWRRAWQREYITDESPAIQLANNMGRIIFLSPSQVALDRLDVKYRKLFWQQLYKQKTEDYDGEETIYEALMRIAQLEEGEETKDENVNDDTINEQILKRYASRPLSKMDDNNIASIAFIWEYQGHRILLMGDADPEQVSNAIEKVYKDETKPVIFDLIKVSHHGSAHSTSCGLMDVIDSERFFFTGGGKERPSLQTLGRIIIRPLPNGIAYRDIRYNRPNEILNKLANLSVDEKGSLHIRVNHNENGYEVSC | not soluble
8 | MIDDIRYLIVFAKIAETGSVSGGAEALGLSAATASLHLSRLERNLGRALLYRNSRKLSLTQDGTQLLDTARSMLELYEKGFIEFRQRAVSTRNSLRISMPAVFVNGDFTRHLAAFIEEHPDLDLGIACDDSRHDIIGDGIDIAFRIGDLPDSSLKARHLFLLPRQVVAAPAFLARHAPLEHPRDLQRLEWIGLGMRPDSRLFRHARDDEEVRVDYTPRVRVDSVEASCRLARLGVGLAAPPTYLSDEPIRRGELRAVLPEWRLEPLKVYAVWPPNVPASSIAYTLINRLYEAFNPG | not soluble
9 | INQYNQKKSQEYTDMQLLLQKESDFAQYYEMILSQSENQSILIHDIKKHLQSIKLLNEKNDSDKINAYIQQLLESSDLKETSKICDNEMLNAILCRYQRQCNEKHIVFHTDIRSDTVQNIYQHDLTSLFCNLLDNALESADNIPDSFIELTVEKKENSPFIIIILINSCRSTPVYDQDGLPVSHKANKGRHGFGIKSIKKVVKQYHGNLQMYYDNDSGTFHTIITLKQ | not soluble
10 | MNALLRFTLGLCSMTLLAGCGENIDHSKIRSSGFVYCGESAPTTFNPQLADNDITSDALGPQIYNTLLTIDPETHLPVASLASSWTVNSTGLEYVFKLRPDVAFQTTPWFSPTRPLNADDVVFSFRRIIDPTNPYHKVGQTQYPWFKGIDFQNLLVDVSALDDLTVKFVLSRPDNSFLSNIATSHAVILSLEYANQLIIDDEKEKLDNLPLGTGPFYLAEYHPRDLIRLKRHPQYWEGAAKVEQVVFDISQRGTGMLAKLLRNECDVLNAPISSQLPAIEKNPDIVLQTTPAMNVAFIAVNTQHPALNDNRVRKALNFAINRQNILDSVYYGTGSIAFTILPPTSWAYQQDTAQIRYDRNYAQALLREAGFATGLELTMSVPVEPKAYNPSPRKTAELIQANLADIGVTLRLISEDRSERQELSIRNNIDLYLSGWTGDTGDPDNFLRPLLSCDSNRAGLNVSMWCDSDFDFLLDLALEANKPRYRLNLYHQAQNILNQEFPVIPLAHGIQFTAYSKSLTGIRISPFNVQPFNTVERVAE | not soluble
11 | MSRAVSRLIEACGRLSITQRSQMHFFRPPPTSSILPPLVTPSTTIVEKSIELPSLENPQQIYTFPTLHRSPIVAPGAILTEILEKLAPTAEKGFLIAPGTPNKSPMWLSPRLLTIRRKKMKKHKRRRRYDRDFFKYQKYHREKKLKSEREFQKRMKSLLTELEAFNPEKYVKDTIRMANKEWQDELAPTGRKLYPHWSRFMSLEQLYGLPKSEYIDKRAGLPTPEEAEQIKALKEKYAKLYRKK | soluble
12 | MSLNYRHAFHAGNFADLHKHAILLAMLSALQEKSPALAVIDTHAGAGGYDLAGEMARRSGEAQAGIFRLKAAADAPAVFQPLLNAITQMNGGKDGDLYPGSPRLMARALRGADRYVGCELRDDDADLLRKTLAPCANARALQADGFDTAVKDAGKGGRAFIVIDPPFERPDDYDRIVATTRAVLARAPDAALAIWLPIKDLETFDAFLRAMETVTSDLLVAELRLRPLTDPMKMNGCAMVMIGAPPSVEDAAVAAGDWIATRLGEPGGRSRVWRTEGHHHHHH | soluble
13 | MFTKSGDDGNTNVINKRVGKDSPLVNFLGDLDELNSFIGFAISKIPWEDMKKDLERVQVELFEIGEDLSTQSSKKKIDEKYVKWLEERTVEYRKESGPVKLFVIPGGSEEASVLHVTRSVARRVERNAVKYTKELPEINRMIIVYLNRLSSLLFAMALVANKRRNVSEKIYDIGKFW | soluble
14 | MNILKIRHGQGHIAKIEAQSFVDGEGVRCSLYVSGCPFACENCYNKVAQNFKYGEPFHEDTLEEIMEYCAPNYISGLSILGGEPFCNVDITLKCAQTFRKRFGNTKSLWVWTGFLFEYLERDSAERKTLLELIDVLVDGPFINHLYRPNLPYKGSMNQRVIDVQASLQKRRVCEYIKSLEHHHHHH | not soluble
15 | MGSDKIHHHHHHMLNQQWLATFVTLVEVGHFTHTANKLFMTQPGVSQHIKKLEEQVGVHLLLRKGKRFELTEAGAILYQHARQYQLAETELLARLQTDNTYVGECRFGCSGAIASLLYPHFLERQIQYPELCVKIEAAPNQRIVSGILTNQLDMGIVTKRGEEADLTYQALGYAELSLVLPSQYLVDKIGIELLEQIGFIDHPDGDYYLQQVLQANFGGRAPMVNSRTGSPVKAHTMAFTHHIRRTGYVNQLSQILLPVAKGLGFTVLPLSTVNAFMPRESLWAVDLEQKVQESLYLVHKSTRPLPSRFDAFIEMAARLIAN | not soluble
16 | MFDKKLSSNDWHIQKVEMNHQVYDIETMLADSAFREHEEEQDSSLNTALPEDKTAIEAKEQEQKEKRKRWYELFKKKPKPKSSMGEFVFDQKENRIYGKGYCNRYFASYVWQGDRHIGIEDSGISRKVCKDEHLMAFELEFMENFKGNFTVTKGKDTLILDNQKMKIYLKTP | not soluble
17 | MAIGFICSSPDAELFSEKSRMSSSVLLGCLLCCMDWSAAVPGKTEPFRKLFDAIMIKKLKSCSAAYPSDLDEGSMCDMADASPTSLELGLSKLDKES | not soluble
18 | MRPNLRFYVQTINDIVKTTEDIGEVMNPYYEEVRQAIDKNKVNDLTAERIAEIQAKFKEGTEKYELMLKKVGTLKPTPQVLGIHKKFQHAYTEYVAGCNEMILATDPETGIDADLFNASEEKQDQATDELTFAITRMSNILLKK | not soluble
19 | MGSDKIHHHHHHMGDAGGAGGNNMNIKQAKNEVKNTVKAYLSKDAHGEYVIPQIRQRPMLLIGPPGVGKTQIMEQIARECKIGLVAYTITHHTRQSAVGLPFIKEREYDGKSYSVTEYTMSEIIASVYEKMEATGLKEGILFIDEINCVSETLAPTMLQFLQCKTFGNQAVPKGWVIVAAGNPPEYNKSVRDFDMVTLDRVRYISIEADYQVWKEYARDVHIHDALLSYLELHPNNFYRVETDVDGMNFVTARGWEDLSSLLKVYEAGELAVTEEVIGEFIHHPDIAEDVYAYLEIYRKYNEDYGISDILSGNVKKSVYKRVFDADFDERITVVNLLLSGLTVVFSDVARERKMVQLWYEFLKEYRKSQRSTEEQHALYNSAVEQFSKNMEILKESSLILPKEYYIRQDVLKHIKGDFDTVMDDFTEESEKLSTMEDAAGEKLNHAFDFVEDVFSDDQEMLVFVTELTITPEISSFLAENECEKFDIYNEKLMVGSNRTRLLKELER | not soluble
20 | MGSDKIHHHHHHMSRTADSLPSTRQRRKEARPQELLDAALDLFVEKGFAATRSEEVAARAGVSKGTLYLYYPSKEELLKAVIRENISQEIAEGEDIVRGFDGPTAELLAHLMAEWWRRIGETRASGICKLIISEVRNFPDIAQFYLDEVVLPAERMIGGVVQRGIDRGEFRPVAVDDVVHALMAPMLFLMLHKHSMGACPNLDRRLDAPRVVAMQVDLVLNGLVPRTAPRGGPRKAKA | not soluble
